B1: MBP-PIF6_(1-100)-His6 [A. thaliana] / PhyB_(1-651)-Avitag-His6 [modified: phycocyanobilin chromophore; biotin on the Avitag; phycocyanobilin chromophore; biotin on the Avitag] [A. thaliana] (parent)
chain 1: MMFLPTDYCCRLSDQEYMELVFENGQILAKGQRSNVSLHNQRTKSIMDLYEAEYNEDFMKSIIHGGGGAITNLGDTQVVPQSHVAAAHETNMLESNKHVD
chain 2: MVSGVGGSGGGRGGGRGGEEEPSSSHTPNNRRGGEQAQSSGTKSLRPRSNTESMSKAIQQYTVDARLHAVFEQSGESGKSFDYSQSLKTTTYGSSVPEQQITAYLSRIQRGGYIQPFGCMIAVDESSFRIIGYSENAREMLGIMPQSVPTLEKPEILAMGTDVRSLFTSSSSILLERAFVAREITLLNPVWIHSKNTGKPFYAILHRIDVGVVIDLEPARTEDPALSIAGAVQSQKLAVRAISQLQALPGGDIKLLCDTVVESVRDLTGYDRVMVYKFHEDEHGEVVAESKRDDLEPYIGLHYPATDIPQASRFLFKQNRVRMIVDCNATPVLVVQDDRLTQSMCLVGSTLRAPHGCHSQYMANMGSIASLAMAVIINGNEDDGSNVASGRSSMRLWGLVVCHHTSSRCIPFPLRYACEFLMQAFGLQLNMELQLALQMSEKRVLRTQTLLCDMLLRDSPAGIVTQSPSIMDLVKCDGAAFLYHGKYYPLGVAPSEVQIKDVVEWLLANHADSTGLSTDSLGDAGYPGAAALGDAVCGMAVAYITKRDFLFWFRSHTAKEIKWGGAKHHPEDKDDGQRMHPRSSFQAFLEVVKSRSQPWETAEMDAIHSLQLILRDSFKESEAAMNSKVVDGVVQPCRDMAGEQGIDELGA

Variants of: B1
Assay: size exclusion chromatography (gel filtration, Superdex 200 10/300 GL, A671 nm)
Conditions: with PhyB_(1-651)-Avitag-His6 [modified: phycocyanobilin chromophore, PhyB illuminated with 660 nm light, PhyB:MBP-PIF 2:1 molar ratio, 60 min at room temperature, parent: 56, read off a plot

| response (% PhyB-PIF complex) | Variant |
| --- | --- |
| 64 | chain 1 MMFLPTDYSSRLSDQEYMELVFENGQILAKGQRSNVSLHNQRTKSIMDLYEAEYNEDFMKSIIHGGGGAITNLGDTQVVPQSHVAAAHETNMLESNKHVD [chain 1 C9S C10S] |
| 52 | chain 1 MMFLPTDYCCRLSDQEYMELVFENGQILAKGQRSQVSLHNQRTKSIMDLYEAEYNEDFMKSIIHGGGGAITNLGDTQVVPQSHVAAAHETNMLESNKHVD [chain 1 N35Q] |
| 57 | chain 1 MMFLPTDYCCRLSDQEYMELVFENGQILAKGQRSNVALHNQRTKSIMDLYEAEYNEDFMKSIIHGGGGAITNLGDTQVVPQSHVAAAHETNMLESNKHVD [chain 1 S37A] |
| 54 | chain 1 MMFLPTDYSSRLSDQEYMELVFENGQILAKGQRSQVSLHNQRTKSIMDLYEAEYNEDFMKSIIHGGGGAITNLGDTQVVPQSHVAAAHETNMLESNKHVD [chain 1 C9S C10S N35Q] |
